Laboratory results reported in patent publication US20050032695A1.
Like-named read-outs stand apart in the source and are kept apart here.

Tests used:
Experiment in all cases: cell-based or functional assay
[1] = molecular target: adenylyl cyclase (AC) in rat spinal cord lysates/membranes (rat)
[2] = molecular target: adenylyl cyclase (AC) in rat spinal cord lysates/membranes (rat); remark: listed apart in the source
[3] = molecular target: adenylyl cyclase (AC) in rat dorsal root ganglia (DRG) lysates (rat)

inhibition of Gαs-stimulated AC activity, spinal cord lysates of control animals, 30 nM PAM [1]: 50%
inhibition of Gαs-stimulated AC activity, spinal cord lysates of animals treated for 1 hour with formalin, 30 nM PAM [2]: 25%
inhibition of Gαs-stimulated AC activity, spinal cord lysates of control animals, 30 nM PAM [2]: 49%
inhibition of Gαs-stimulated AC activity, spinal cord lysates of rats 96 hours after zymosan injection, 30 nM PAM [2]: 70%
inhibition of Gαs-stimulated AC activity, spinal cord preparations of zymosan-treated animals [2]: 75%
inhibition of Gαs-stimulated AC activity, DRG lysates, 30 nM PAM [3]: 32%
Substance: PAM (Protein Associated with Myc), full length, purified from HeLa cells (from UniProt O75592 1-4678)
